Measured values from patent publication US20150344570A1 (published 2015).

Target: T1, FcγRIa (human, UniProt P12314 16-292)
T1 construct: extracellular domain; soluble His-tagged extracellular domain expressed in FreeStyle293 cells, used as analyte in Biacore; also called FcgRI; CD64
Assay: SPR (Biacore), captured antibody, FcγRIa analyte; relative to GpH7-A5/GpH7-B3/GpL16-k0

T1 sequence (P12314 16-292): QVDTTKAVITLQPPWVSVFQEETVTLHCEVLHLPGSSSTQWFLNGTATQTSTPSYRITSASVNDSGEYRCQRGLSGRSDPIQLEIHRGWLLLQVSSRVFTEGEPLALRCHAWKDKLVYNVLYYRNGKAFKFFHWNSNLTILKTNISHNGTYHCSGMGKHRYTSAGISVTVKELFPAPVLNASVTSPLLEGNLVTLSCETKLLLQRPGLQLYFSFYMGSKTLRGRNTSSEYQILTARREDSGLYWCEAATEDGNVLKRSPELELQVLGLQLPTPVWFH

Binder | He/Con_1a
GpH7-A5/GpH7-B3 variant T335_04F/GpL16-k0 (antibody, human IgG1, kappa, heterodimerized IgG1, mutation in one H chain only; also called He Ab) heavy 1: not shown heavy 2: not shown light: DIVMTQSPLSLPVTPGEPASISCQASESLVHSNRNTYLHWYLQKPGQSPQLLIYKVSNRFSGVPDRFSGSGSGTDFTLKISRVEAEDVGVYYCSQNTHVPPTFGQGTKVEIERTVAAPSVFIFPPSDEQLKSGTASVVCLLNNFYPREAKVQWKVDNALQSGNSQESVTEQDSKDSTYSLSSTLTLSKADYEKHKVYACEVTHQGLSSPVTKSFNRGEC | 105 relative, control = 100
GpH7-A5/GpH7-B3 variant H268_01G/GpL16-k0 (antibody, human IgG1, kappa, heterodimerized IgG1, mutation in one H chain only; also called He Ab) heavy 1: not shown heavy 2: not shown light: DIVMTQSPLSLPVTPGEPASISCQASESLVHSNRNTYLHWYLQKPGQSPQLLIYKVSNRFSGVPDRFSGSGSGTDFTLKISRVEAEDVGVYYCSQNTHVPPTFGQGTKVEIERTVAAPSVFIFPPSDEQLKSGTASVVCLLNNFYPREAKVQWKVDNALQSGNSQESVTEQDSKDSTYSLSSTLTLSKADYEKHKVYACEVTHQGLSSPVTKSFNRGEC | 107 relative, control = 100
GpH7-A5/GpH7-B3 variant S337_06M/GpL16-k0 (antibody, human IgG1, kappa, heterodimerized IgG1, mutation in one H chain only; also called He Ab) heavy 1: not shown heavy 2: not shown light: DIVMTQSPLSLPVTPGEPASISCQASESLVHSNRNTYLHWYLQKPGQSPQLLIYKVSNRFSGVPDRFSGSGSGTDFTLKISRVEAEDVGVYYCSQNTHVPPTFGQGTKVEIERTVAAPSVFIFPPSDEQLKSGTASVVCLLNNFYPREAKVQWKVDNALQSGNSQESVTEQDSKDSTYSLSSTLTLSKADYEKHKVYACEVTHQGLSSPVTKSFNRGEC | 107 relative, control = 100
GpH7-A5/GpH7-B3 variant H268_09D/GpL16-k0 (antibody, human IgG1, kappa, heterodimerized IgG1, mutation in one H chain only; also called He Ab) heavy 1: not shown heavy 2: not shown light: DIVMTQSPLSLPVTPGEPASISCQASESLVHSNRNTYLHWYLQKPGQSPQLLIYKVSNRFSGVPDRFSGSGSGTDFTLKISRVEAEDVGVYYCSQNTHVPPTFGQGTKVEIERTVAAPSVFIFPPSDEQLKSGTASVVCLLNNFYPREAKVQWKVDNALQSGNSQESVTEQDSKDSTYSLSSTLTLSKADYEKHKVYACEVTHQGLSSPVTKSFNRGEC | 110 relative, control = 100
GpH7-A5/GpH7-B3 variant H268_18N/GpL16-k0 (antibody, human IgG1, kappa, heterodimerized IgG1, mutation in one H chain only; also called He Ab) heavy 1: not shown heavy 2: not shown light: DIVMTQSPLSLPVTPGEPASISCQASESLVHSNRNTYLHWYLQKPGQSPQLLIYKVSNRFSGVPDRFSGSGSGTDFTLKISRVEAEDVGVYYCSQNTHVPPTFGQGTKVEIERTVAAPSVFIFPPSDEQLKSGTASVVCLLNNFYPREAKVQWKVDNALQSGNSQESVTEQDSKDSTYSLSSTLTLSKADYEKHKVYACEVTHQGLSSPVTKSFNRGEC | 108 relative, control = 100
GpH7-A5/GpH7-B3 variant A330_04F/GpL16-k0 (antibody, human IgG1, kappa, heterodimerized IgG1, mutation in one H chain only; also called He Ab) heavy 1: not shown heavy 2: not shown light: DIVMTQSPLSLPVTPGEPASISCQASESLVHSNRNTYLHWYLQKPGQSPQLLIYKVSNRFSGVPDRFSGSGSGTDFTLKISRVEAEDVGVYYCSQNTHVPPTFGQGTKVEIERTVAAPSVFIFPPSDEQLKSGTASVVCLLNNFYPREAKVQWKVDNALQSGNSQESVTEQDSKDSTYSLSSTLTLSKADYEKHKVYACEVTHQGLSSPVTKSFNRGEC | 106 relative, control = 100
GpH7-A5/GpH7-B3 variant I336_08L/GpL16-k0 (antibody, human IgG1, kappa, heterodimerized IgG1, mutation in one H chain only; also called He Ab) heavy 1: not shown heavy 2: not shown light: DIVMTQSPLSLPVTPGEPASISCQASESLVHSNRNTYLHWYLQKPGQSPQLLIYKVSNRFSGVPDRFSGSGSGTDFTLKISRVEAEDVGVYYCSQNTHVPPTFGQGTKVEIERTVAAPSVFIFPPSDEQLKSGTASVVCLLNNFYPREAKVQWKVDNALQSGNSQESVTEQDSKDSTYSLSSTLTLSKADYEKHKVYACEVTHQGLSSPVTKSFNRGEC | 107 relative, control = 100
GpH7-A5/GpH7-B3 variant A330_01G/GpL16-k0 (antibody, human IgG1, kappa, heterodimerized IgG1, mutation in one H chain only; also called He Ab) heavy 1: not shown heavy 2: not shown light: DIVMTQSPLSLPVTPGEPASISCQASESLVHSNRNTYLHWYLQKPGQSPQLLIYKVSNRFSGVPDRFSGSGSGTDFTLKISRVEAEDVGVYYCSQNTHVPPTFGQGTKVEIERTVAAPSVFIFPPSDEQLKSGTASVVCLLNNFYPREAKVQWKVDNALQSGNSQESVTEQDSKDSTYSLSSTLTLSKADYEKHKVYACEVTHQGLSSPVTKSFNRGEC | 106 relative, control = 100
GpH7-A5/GpH7-B3 variant S337_07I/GpL16-k0 (antibody, human IgG1, kappa, heterodimerized IgG1, mutation in one H chain only; also called He Ab) heavy 1: not shown heavy 2: not shown light: DIVMTQSPLSLPVTPGEPASISCQASESLVHSNRNTYLHWYLQKPGQSPQLLIYKVSNRFSGVPDRFSGSGSGTDFTLKISRVEAEDVGVYYCSQNTHVPPTFGQGTKVEIERTVAAPSVFIFPPSDEQLKSGTASVVCLLNNFYPREAKVQWKVDNALQSGNSQESVTEQDSKDSTYSLSSTLTLSKADYEKHKVYACEVTHQGLSSPVTKSFNRGEC | 105 relative, control = 100
GpH7-A5/GpH7-B3 variant I336_12R/GpL16-k0 (antibody, human IgG1, kappa, heterodimerized IgG1, mutation in one H chain only; also called He Ab) heavy 1: not shown heavy 2: not shown light: DIVMTQSPLSLPVTPGEPASISCQASESLVHSNRNTYLHWYLQKPGQSPQLLIYKVSNRFSGVPDRFSGSGSGTDFTLKISRVEAEDVGVYYCSQNTHVPPTFGQGTKVEIERTVAAPSVFIFPPSDEQLKSGTASVVCLLNNFYPREAKVQWKVDNALQSGNSQESVTEQDSKDSTYSLSSTLTLSKADYEKHKVYACEVTHQGLSSPVTKSFNRGEC | 102 relative, control = 100
GpH7-A5/GpH7-B3 variant H268_10E/GpL16-k0 (antibody, human IgG1, kappa, heterodimerized IgG1, mutation in one H chain only; also called He Ab) heavy 1: not shown heavy 2: not shown light: DIVMTQSPLSLPVTPGEPASISCQASESLVHSNRNTYLHWYLQKPGQSPQLLIYKVSNRFSGVPDRFSGSGSGTDFTLKISRVEAEDVGVYYCSQNTHVPPTFGQGTKVEIERTVAAPSVFIFPPSDEQLKSGTASVVCLLNNFYPREAKVQWKVDNALQSGNSQESVTEQDSKDSTYSLSSTLTLSKADYEKHKVYACEVTHQGLSSPVTKSFNRGEC | 111 relative, control = 100
